Laboratory results reported in the supplement of paper PMC7125110.
± gives the standard error. Variants at the floor of the assay were thinned out.

B1: glmS ribozyme (parent)
chain: AUAAAAGCGCCAGAACUACAGAAAUGUAGUUGACGAGGAGGAGGUUUAUCGAAUUUUCGGCGGAUGCCUCCAAA

Legend:
Details in all cases: with glucosamine-6-phosphate
glucosamine-6-phosphate [1] = variants of: B1; assay: self-cleavage kobs at 640 uM GlcN6P; higher = faster cleavage; RNA array
How it was run: (§1)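 Barcoded ribozyme variants on sequenced MiSeq chips were transcribed in situ by E. coli RNA polymerase and followed at 37 °C through a hybridised Cy3 probe. Glucosamine-6-phosphate at 40 μM to 10 mM in HEPES/KCl/Mg(OAc)2 buffer was flowed in, and tiles were imaged over ~14 h. Signals were normalised to baseline and to non-cleaving reference variants, and per-tile medians were fit to one- or two-exponential decays to give kobs. Weighted Michaelis–Menten fits across concentrations gave kcat and KM.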

glucosamine-6-phosphate [2] = variants of: B1; assay: self-cleavage kobs at 2500 uM GlcN6P; higher = faster cleavage; RNA array
How it was run: as §1

glucosamine-6-phosphate [3] = variants of: B1; assay: self-cleavage kobs at 10000 uM GlcN6P; higher = faster cleavage; RNA array
How it was run: as §1

Variant	self-cleavage kobs at 640 uM GlcN6P (glucosamine-6-phosphate [1]) [s⁻¹]	self-cleavage kobs at 2500 uM GlcN6P (glucosamine-6-phosphate [2]) [s⁻¹]	self-cleavage kobs at 10000 uM GlcN6P (glucosamine-6-phosphate [3]) [s⁻¹]
AUAAAAGCGCCAGAACUACAGAAAUGUAGUUGACGAGGAGGAGGUUUAUUGAAUUUUAGGCGGAUGCUUCCAAA [C50U C58A C68U]	8.66e-05 ± 2.6e-05	–	–
AUAAAAGCGCCAGAACUACAGAAAUGUAGUUGACGAGGAGGACGUUUAUCGAUUAUACGGCGGAUGCCUCCAAA [G43C A53U U55A U57A]	< 1e-05	–	–
AUAAAAGCGCCAGAACUACAGAAAUGUAGUUCACGACGAGGAGGUUUAUCGAAUCUUCGGCGGAGGCCUCCAAA [G32C G37C U55C U65G]	–	< 1e-05	–
AUAAAAGCGACAAAACUACAGAAAUGUAGUUGACGAGGAGGAGGUUUAUAGAAUUUUUGGCGGAUGCCUCGAAA [C10A G13A C50A C58U C71G]	0.000823 ± 0.00036	7.64e-05 ± 3.6e-05	–
AUAAAAGCGCCAGAACUACAGAAAUGUAGUUGACGAGGAGGUGGUUUAUCGAAUUUUCGGUGGAUGUCUCCAAA [A42U C61U C67U]	< 1e-05	–	–
AUAAAAGCGCCAGAACUACAGAAAUGUAGUUGACGAGGAGGACGGUUAUCGAAUUUUCGGCGCAUGCCGCCAAA [G43C U45G G63C U69G]	< 1e-05	–	–
AUAAAAGCGCCAGAAAUACAGAAAUGUAGUCGACGAGGAGCAGGUUUAUCGAAUUUUCGGCGGAUGCCUCCAAA [C16A U31C G41C]	< 1e-05	< 1e-05	–
AUAAAAGCGCCAGAACUACAGAAAUGUAGUUGACGAGGAGGAUGUUUAUCGAAUUCUCGGCGGAUGGCUCCAAA [G43U U56C C67G]	–	< 1e-05	–
AUAAAAGCGCCAGAACUACAGAAAUGUAGUCGACGAGGAGGAGGUUUAUCGAAUUAUCGGCGGAUGCCUCCAAA [U31C U56A]	0.00164 ± 0.00028	0.00201 ± 0.00053	–
AUAAAAGCGCCAGAACUACAGAAAUGUAGUUGACGGUGAGGCGUUUUAUCGAAUUUUCGGCGGAUGCCUCCAAA [A36G G37U A42C G44U]	< 1e-05	–	< 1e-05
AUAAAAUCGCCAGAACUACAGAAAUGUAGUUCAUGAGGAGGAGGUUUAUCGAAUUUUCGGCGGAUGCCUCCAAA [G7U G32C C34U]	–	< 1e-05	–
AUAAAAGCGCCAGAACUACAGAAAUGUAGUUGACCAGUAGGAUGUUUAUCGAAUUUUCGGCGGAUGCCUCCAAA [G35C G38U G43U]	–	< 1e-05	–
AUAAAAGCGCCAGAACUACAGAAAUGUAGUUGACGAGGAGCAGGUUUAUCGAAUUUUCUGCGGAUGCCUGCAAA [G41C G59U C70G]	3.61e-05 ± 1.7e-05	0.000118 ± 3.1e-05	0.000122 ± 2.1e-05
AUAAAAGCGUCAGAACUACAGAAAUGUAGUUGACGAGGAGCAGUUUUAUCGAAUCUUUGGCGGAUGCCUCCAAA [C10U G41C G44U U55C C58U]	< 1e-05	–	–
AUAAAACCGCCAGAACUACAGAAAUGUAGUUGACGAGGAGGAUGUUUAUCGAAUUUUCGGCGGUUGCCUCCAAA [G7C G43U A64U]	< 1e-05	–	–
AUAAAAGGGCCAGAACUACAGAAAUGUAGUUGACGAGGAGGCGGCUUAUCGAAUUUUCGGCGGAUGCCUCGAAA [C8G A42C U45C C71G]	–	< 1e-05	< 1e-05
AUAAAAGCGCCAGAACUACAGAAAUGUAGUUGACCAGGACGAGGUUUAUCGAAUUUUCGGCGGAUGCCUUCAAA [G35C G40C C70U]	–	< 1e-05	–
AUAAAAGCGCCAGAACUACAGAAAUGUAGUUGACGACGAGGAGGUUUAUCGAAUUUUCGGCUGAUGCCUCGAAA [G37C G62U C71G]	–	< 1e-05	–
AUAAAAGCGCCAGAACUACAGAAAUGUAGUUGACGAGGAGGAGGCUUAUCGAAUUUUCGGCGUAUGUCUCCAAA [U45C G63U C67U]	< 1e-05	–	–
AUAAAAGCGCCAGAACUACAGAAAUGUAGUUGACGAGGAGGAGGUUUAUUGAAUUAUCGGCGGAUUCCUCCAAA [C50U U56A G66U]	< 1e-05	< 1e-05	–
AUAAAAGCGCCAGAACUACAGAAAUGUAGUCGAAGAGGAGGAGGUUUAUCGAAUUUUCUGCGGAUGCCUCCAAA [U31C C34A G59U]	< 1e-05	< 1e-05	–
AUAAAAGCGCCAGAAUUACAGAAAUGUAGUUGACGAGGAGAAGGUUUAUCGAAUUUUCGGCGGAUGCCUCAAAA [C16U G41A C71A]	7.7e-05 ± 2.1e-05	0.000279 ± 7.1e-05	–
AUAAAAGCGCCAGAAAUACAGAAAUGUAGUUGACGAGGAGGAGGUUUAUCGAGUUUUCGGCAGAUGCCUCCAAA [C16A A53G G62A]	< 1e-05	–	–
AUAAAAGCGCCAGAACUACAGAAAUGUAUUUGACGAGGGGGAGGUUUAUCGAUUUUUCGGCGGAUGCCUCCAAA [G29U A39G A53U]	0.00124 ± 0.00019	–	–
AUAAAAGCGCCAGAACUACAGAAAUGUACUUCACGAGGAGGAGGUUUAUCGCAUUUUCGGCGGAUGCGUCCAAA [G29C G32C A52C C68G]	8.66e-05 ± 3.9e-05	–	–

Variant	self-cleavage kobs at 640 uM GlcN6P (glucosamine-6-phosphate [1]) [s⁻¹]	self-cleavage kobs at 2500 uM GlcN6P (glucosamine-6-phosphate [2]) [s⁻¹]	self-cleavage kobs at 10000 uM GlcN6P (glucosamine-6-phosphate [3]) [s⁻¹]
AUAAAAGCGCCAGAAUUACAGAAAUGUAGUUGACGAGGCGGAGGUUUAUCGAAUUUUCGGCGGAGGCCUCCAAA [C16U A39C U65G]	0.000131 ± 3.8e-05	8.33e-05 ± 2.6e-05	0.000837 ± 0.00011
AUAAAAGCGCCAGAACUACAGAAAUGUAGUUGACGAGGAUGAGGUCUAUCGAAUUUUCGGCGGGUGCCUCCAAA [G40U U46C A64G]	–	9.83e-05 ± 2.4e-05	–
AUAAAAGUGCCAGAACUACAGAAAUGUAGUUGACGACGAGGAGGUUUAUCGGAUUUUCGGCGGAUGCCUCCAAA [C8U G37C A52G]	< 1e-05	–	–
AUAAAAGCGCCAGAACUACAGAAAUGUAGUUAACGAGGAGGAGGUUUAUCGAGUUGUCGGCGGAUGCCUCCAAA [G32A A53G U56G]	7.56e-05 ± 2.8e-05	0.000272 ± 8.6e-05	–
AUAAAAGCGCAAGAAGUACAGAAAUGUAGUUGACGAGGAGGAGGUUUAUCGAAUUUAGGGCGGUUGCCUCCAAA [C11A C16G U57A C58G A64U]	< 1e-05	< 1e-05	–
AUAAAAGCGCUAGAAUUACAGAAAUGUAGUUGACGAGGAGGAGGAUUAUCGAAUUUUCGGCGGAUGCCUCCAAA [C11U C16U U45A]	0.000806 ± 0.00021	0.00127 ± 0.00037	–
AUAAAAGCGCCAGAACUACAGAAAUGUAGUUGACGAGGAGGAGUUUUACCGAAUUUUCGGCUGAUGCCUCCAAA [G44U U49C G62U]	< 1e-05	< 1e-05	–
AUAAAAGCGCCAGAACUACAGAAAUGUAGUUUACGAGGAGGAGGCUUAUCGAAUUUUCGGCGGAUGCCUCCAAA [G32U U45C]	–	1.98e-05 ± 7.1e-06	4.42e-05 ± 5.9e-06
AUAAAAGCGCCCGAAGUACAGAAAUGUAGUUGACGAGGAGGGGCGAUAUCGAAUUUUCGGACGAUGCCUCCAAA [A12C C16G A42G G44C U45G U46A C61A G62C]	< 1e-05	< 1e-05	–
AUAAAAGCGCCAGAACUACAGAAAUGUAGUUGACGAGGAGGAGGGUUAUCGAAUUUUCGGCGGAUGCCUGCAAA [U45G C70G]	0.000176 ± 7.2e-05	4.73e-05 ± 1.8e-05	0.000258 ± 6.7e-05
AUAAAAGCGCCAGAACUACAGAAAUGUAGUUGACGAGGAGGUGGUUUAUGCAAUUUUCGGCGGAUGCCGCGAAA [A42U C50G G51C U69G C71G]	–	< 1e-05	–
AUAAAAGCGCCAGAAGUACAGAAAUGUAGUUGACGAGGAGGAUGUUUAUCGAAUUUUCGGCGGAUACCUCCAAA [C16G G43U G66A]	< 1e-05	–	–
AUAAAAGCGCCAGAACUACAGAAAUGUAAUUGACGAGAAGGACGUUUAUCGAAUUUUCGGCGGAUGCCUCCAAA [G29A G38A G43C]	< 1e-05	–	–
AUAAAAGUGCCAGAACUACAGAAAUGUAGUUGACGAGGAGGAAGUUUAUCGAACUUUCGGCGGAUGCCUCCAAA [C8U G43A U54C]	< 1e-05	–	–
AUAAAAGCGCUAGAACUACAGAAAUGUAGGUGACGAGGAGGAGGUUUAUCGAAUUUACGGUGGAUGCCUCCAAA [C11U U30G U57A C61U]	< 1e-05	–	–
AUAAAUGCGCCAGAAUUACAGAAAUGUAGUUGACGAGGAGGAGGUUUAUCGAAUUUUCGGUGGAUGCCUCUAAA [A6U C16U C61U C71U]	< 1e-05	< 1e-05	–
AUAAAAGCGCCAGAACUACAGAAAUGUAGUUGACGAGGAGGAGGUUUAUCGACUUUUCGACGGAUACCUCCAAA [A53C G60A G66A]	< 1e-05	–	–
AUAAAAGCGCCAGAACUACAGAAAUGUAGUUGACGAGGAGGAGGUUUGUCGAAUUUUAGGCGGAUGGCUUCAAA [A48G C58A C67G C70U]	0.000135 ± 4.4e-05	6.91e-05 ± 2.5e-05	4.32e-05 ± 1.3e-05
AUAAAAGCGCCAGAACUACAGAAAUGUAGUUGACGAGUAGGAGGUUUUUCGAAUUUUCGGGGGAUGCCUCUAAA [G38U A48U C61G C71U]	< 1e-05	–	–
AUAAAAGCGCCAGAACUACAGAAAUGUAGCUGACGAGGAGGAAGUUUAUCGAAUUUUCGGCGGAUGCCUCUAAA [U30C G43A C71U]	< 1e-05	–	–
AUAAAAGCGUCAGAACUACAGAAAUGUAGCUGACGAGGAUGAGGUUUAUCGAAUCUUCGACGGAUGCCUCUAAA [C10U U30C G40U U55C G60A C71U]	< 1e-05	–	–
AUAAAAGCGCCAGAACUACAGAAAUGUAGUUGACGCGGAGGAGGUUUAUCUACUUUUCGGCGGAUGCCUCCAAA [A36C G51U A53C]	< 1e-05	< 1e-05	< 1e-05
AUAAAAGCGCCAGAACUACAGAAAUGUAGUUGAUGAGUAGGAGGUCUAUCGAAUUGUCGUCGGAUGCCUCCAAA [C34U G38U U46C U56G G60U]	< 1e-05	–	–
AUAAAAGCGCCAGAACUACAGAAAUGUAGUUGACGAAGAGGAGGAUUAUCGUAUUUUCGACGGAUGCCUCCAAA [G37A U45A A52U G60A]	–	< 1e-05	–
